How the values were obtained:
[1] = tested on: KIDS cPLA2 protein in hippocampal dentate gyrus; assay: Immunohistochemical dyeing of brain slices after kainic acid stimulation; assay type: in vivo, cPLA2a knockout mouse, C57/Black 6J mouse, Wister rat; conditions: anti-KIDS cPLA2 stump antibody
Experimental: Brains of cPLA2a knockout mouse and C57/Black 6J mouse of 6-10 weeks age and Wister rat of 3 weeks age stimulated by kainic acid were fixed with 4% paraformaldehyde and then frozen slices were prepared. Immunoreaction of an anti-KIDS cPLA2-specific stump antibody with the brain slice was carried out overnight at 4° C. and expression of KIDS cPLA2 protein was confirmed by a secondary antibody labeled with gold colloid.

[2] = tested on: nerve stem cells; assay: Expression of KIDS cPLA2 in nerve stem cells after stimulation; assay type: cell-based; conditions: kainic acid 10 μM, probe P19-P27, FIG. 14
Experimental: Then expression of KIDS cPLA 2 of the present invention using nerve stem cells by means of stimulation by kainic acid (10 μM), by kainic acid and CNQX (10 μM KA and 20 μM CNQX) and by glutamic acid (50 μM) was investigated.
The result is shown in FIG. 14 which is a picture as a substitute for a drawing. In FIG. 14, the probe used is P90-P27 of 252 bp (the said sequence is a sequence of a moiety which is common in the full-length cPLA2) in the upper column, P19-P27 of 290 bp (the said sequence contains a sequence specific to KIDS cPLA2 of the present invention) in the second column and G3 PDH and nestin in the lower two columns as controls.
The lanes in FIG. 14 are control and stimulations by kainic acid (KA (10 μM)), by kainic acid and CNQX (KA (10 μM)+CNQX (20 μM)) and by glutamic acid (Glu (50 μM)) from the left side.

[3] = tested on: KIDS cPLA2 mRNA in hippocampal dentate gyrus; assay: In situ hybridization of brain slices after kainic acid stimulation; assay type: in vivo, Wister rat; conditions: rat brain, riboprobe C, with or without kainic acid stimulation
Experimental: Brain of Wister rat of 3 weeks age stimulated by kainic acid was fixed by 4% paraformaldehyde and then a frozen slice was prepared. Each of the radio-labeled riboprobes B, C and D was subjected to a hybridization reaction with the frozen slice and the labeled image of the slice from each probe was confirmed to be same. Then, frozen slice of the brain was prepared again using riboprobe C with or without a kainic acid stimulation and an expression pattern of KIDS cPLA2 mRNA was investigated.

[4] = Enzymatic (phospholipase A2) activity of KIDS cPLA2 and cPLA2α on radiolabelled PC substrates; assay type: biochemical; conditions: difference from the control
Text: Then enzymatic activity of cPLA2α and KIDS cPLA2 of the present invention were investigated. There were used 1-Pam-2-[^14C] arachidonoyl-PC (black dots (●) in FIG. 7), 1-Pam-2-[^14C]Iinoleoyl-PC (black triangles (▴) in FIG. 7), 1-Pam-2-[^14C]oleoyl-PC (black squares (▪) in FIG. 7) and 1-Pam-2-[^14C]palmitoyl-PC (asterisks (*) in FIG. 7) as the substrates for testing the enzymatic activity of each of them. In FIG. 7, the left side is that for KIDS cPLA2 of the present invention while the right side is that for cPLA2α.
Incidentally, the phospholipase A2 activity is given in terms of the difference from the control.

[5] = Calcium dependency of enzymatic activity (EDTA-Ca); assay type: biochemical; conditions: substrate 1-Pam-2-[^14C]arachidonoyl-PC
Text: Then, calcium dependency of cPLA2α and KIDS cPLA2 of the present invention on enzymatic activity was investigated using 1-Pam-2-[^14C]arachidonoyl-PC as a substrate. EDTA-Ca was used as a calcium source.
The solid lines in FIG. 8 are the case of KIDS cPLA of the present invention while the broken lines therein are the case of cPLA2α. In each of them, the black dots (●) are the data in the absence of EDTA-Ca while the open circles (◯) are those in the presence of EDTA-Ca.
It is noted that, in the case of KIDS cPLA2 of the present invention, an activity of around 40% is maintained even […] while, in the case of cPLA2α, the activity is reduced to an extent of around 10-15% […].

Molecule	Expression of KIDS cPLA2 protein [1]	Expression of KIDS cPLA2 [2]	Expression pattern of KIDS cPLA2 mRNA [3]	Phospholipase A2 Activity ([4]; substrate 1-Pam-2-[^14C]arachidonoyl-PC)	Phospholipase A2 Activity ([4]; substrate 1-Pam-2-[^14C]linoleoyl-PC)	Phospholipase A2 Activity ([4]; substrate 1-Pam-2-[^14C]oleoyl-PC)	Phospholipase A2 Activity ([4]; substrate 1-Pam-2-[^14C]palmitoyl-PC)	Activity maintained in the presence of calcium (relative ratio) ([5]; EDTA-Ca, FIG. 9)	Change of enzymatic activity by the presence of calcium ([5]; with and without EDTA-Ca, FIG. 8)
C=C(C)[C@H]1CN[C@H](C(=O)O)[C@H]1CC(=O)O [kainic acid]	drastically induced in the hippocampal dentate gyrus	specific expression of KIDS cPLA2 of the present invention was confirmed	drastically induced in the hippocampal dentate gyrus						
cPLA2α: cytosolic phospholipase A2 (cPLA2α) of 85 kDa, the conventional full-length enzyme (protein, UniProt P47712 1-749, looked up, full-length, cytosolic phospholipase A2 (cPLA2α) of 85 kDa, the conventional full-length enzyme) MSFIDPYQHIIVEHQYSHKFTVVVLRATKVTKGAFGDMLDTPDPYVELFISTTPDSRKRTRHFNNDINPVWNETFEFILDPNQENVLEITLMDANYVMDETLGTATFTVSSMKVGEKKEVPFIFNQVTEMVLEMSLEVCSCPDLRFSMALCDQEKTFRQQRKEHIRESMKKLLGPKNSEGLHSARDVPVVAILGSGGGFRAMVGFSGVMKALYESGILDCATYVAGLSGSTWYMSTLYSHPDFPEKGPEEINEELMKNVSHNPLLLLTPQKVKRYVESLWKKKSSGQPVTFTDIFGMLIGETLIHNRMNTTLSSLKEKVNTAQCPLPLFTCLHVKPDVSELMFADWVEFSPYEIGMAKYGTFMAPDLFGSKFFMGTVVKKYEENPLHFLMGVWGSAFSILFNRVLGVSGSQSRGSTMEEELENITTKHIVSNDSSDSDDESHEPKGTENEDAGSDYQSDNQASWIHRMIMALVSDSALFNTREGRAGKVHNFMLGLNLNTSYPLSPLSDFATQDSFDDDELDAAVADPDEFERIYEPLDVKSKKIHVVDSGLTFNLPYPLILRPQRGVDLIISFDFSARPSDSSPPFKELLLAEKWAKMNKLPFPKIDPYVFDREGLKECYVFKPKNPDMEKDCPTIIHFVLANINFRKYRAPGVPRETEEEKEIADFDIFDDPESPFSTFNFQYPNQAFKRLHDLMHFNTLNNIDVIKEAMVESIEYRRQNPSRCSVSLSNVEARRFFNKEFLSKPKA				24.4 ± 1.4 pmol/min	11.9 ± 1.8 pmol/min	9.1 ± 1.1 pmol/min	9.8 ± 1.7 pmol/min	10-15%	sudden reduction in the activity by the presence of calcium
